T1: LRP6-Fc (R&D Systems, catalog No: 1505-LR) (human, UniProt O75581 20-1370)
T1 construct: also called 360 KD homodimer antigen LRP6-Fc
T1 sequence (looked up): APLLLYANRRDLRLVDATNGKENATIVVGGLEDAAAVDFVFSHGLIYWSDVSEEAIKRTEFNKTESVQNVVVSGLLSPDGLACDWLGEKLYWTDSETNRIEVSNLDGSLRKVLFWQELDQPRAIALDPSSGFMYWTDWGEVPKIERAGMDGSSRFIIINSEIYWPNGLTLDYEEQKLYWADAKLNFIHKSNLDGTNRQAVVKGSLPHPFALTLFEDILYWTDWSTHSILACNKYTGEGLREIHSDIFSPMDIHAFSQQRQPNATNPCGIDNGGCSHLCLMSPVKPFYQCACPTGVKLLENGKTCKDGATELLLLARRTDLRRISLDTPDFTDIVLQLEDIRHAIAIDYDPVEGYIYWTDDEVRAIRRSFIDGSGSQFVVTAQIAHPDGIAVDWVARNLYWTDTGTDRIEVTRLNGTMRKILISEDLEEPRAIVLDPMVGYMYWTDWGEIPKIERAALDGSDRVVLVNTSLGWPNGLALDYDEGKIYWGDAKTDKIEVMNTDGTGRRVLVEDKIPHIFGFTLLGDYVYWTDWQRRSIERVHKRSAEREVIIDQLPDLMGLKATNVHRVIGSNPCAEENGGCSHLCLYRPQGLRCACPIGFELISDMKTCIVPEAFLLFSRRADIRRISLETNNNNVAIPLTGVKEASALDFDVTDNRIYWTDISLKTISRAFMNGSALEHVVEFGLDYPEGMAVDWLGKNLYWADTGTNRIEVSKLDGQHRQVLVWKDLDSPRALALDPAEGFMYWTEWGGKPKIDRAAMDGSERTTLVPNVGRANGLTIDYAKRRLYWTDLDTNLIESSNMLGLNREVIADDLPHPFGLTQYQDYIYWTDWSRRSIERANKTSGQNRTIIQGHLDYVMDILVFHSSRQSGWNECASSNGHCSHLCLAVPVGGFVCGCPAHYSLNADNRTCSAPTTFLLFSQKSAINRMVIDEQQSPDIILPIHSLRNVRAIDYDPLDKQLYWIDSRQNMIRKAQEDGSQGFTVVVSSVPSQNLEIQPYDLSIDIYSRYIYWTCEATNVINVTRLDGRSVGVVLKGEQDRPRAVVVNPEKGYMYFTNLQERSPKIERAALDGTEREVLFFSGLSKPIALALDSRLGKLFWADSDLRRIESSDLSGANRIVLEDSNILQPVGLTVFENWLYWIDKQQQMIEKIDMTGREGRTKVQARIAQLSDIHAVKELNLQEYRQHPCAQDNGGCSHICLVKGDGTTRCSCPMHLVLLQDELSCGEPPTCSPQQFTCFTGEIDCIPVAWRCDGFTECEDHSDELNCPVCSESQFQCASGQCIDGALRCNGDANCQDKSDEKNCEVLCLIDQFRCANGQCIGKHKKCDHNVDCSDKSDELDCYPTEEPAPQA


Experiments:
[1] = target: T1, LRP6-Fc (R&D Systems, catalog No: …); assay: ELISA on plates coated with LRP6-Fc
Experimental: Binding EC₅₀ of scFvs against LRP6 protein was measured by ELISA. Maxisorp plate was coated with LRP6-Fc (R&D Sysytems, catalog No: 1505-LR) at 3 μg/ml at 4° C. overnight. The plate was blocked with 50 μl of 2% BSA for one hour, and washed five times with the wash solution. The samples were diluted with 1% BSA accordingly. The plate was incubated at RT for 1 h, and washed for 3 times. Detection was done by adding 50 μl pentallis-HRP (Qiagen Mat. No. 1014992) at 1:2000 dilution in 1% BSA, incubated at RT for 1 h, and washed 3 times. 50 μl of substrate reagent A plus B (R&D systems) was added, then incubated for 5-20 min depending on the color. The reaction was stopped by adding 25 μl of the stop solution, followed by plate reading at 450 nm.
Affinity analysis ELISA EC₅₀ was carried out for both scFv08168 and scFv06475 wild type and variants.

human LRP6 = human LRP6 (human, UniProt O75581 20-1613); assay: cell-based or functional assay
cynomolgus LRP6 = cynomolgus LRP6 (cynomolgus, UniProt A0A2K5VCG3 20-1602); assay: FACS on HEK293T/17 cells transiently transfected with cynomolgus LRP6 (Example 3); Fab or IgG format not stated on the sheet
cynomolgus LRP6, sequence (A0A2K5VCG3 entry or part of it): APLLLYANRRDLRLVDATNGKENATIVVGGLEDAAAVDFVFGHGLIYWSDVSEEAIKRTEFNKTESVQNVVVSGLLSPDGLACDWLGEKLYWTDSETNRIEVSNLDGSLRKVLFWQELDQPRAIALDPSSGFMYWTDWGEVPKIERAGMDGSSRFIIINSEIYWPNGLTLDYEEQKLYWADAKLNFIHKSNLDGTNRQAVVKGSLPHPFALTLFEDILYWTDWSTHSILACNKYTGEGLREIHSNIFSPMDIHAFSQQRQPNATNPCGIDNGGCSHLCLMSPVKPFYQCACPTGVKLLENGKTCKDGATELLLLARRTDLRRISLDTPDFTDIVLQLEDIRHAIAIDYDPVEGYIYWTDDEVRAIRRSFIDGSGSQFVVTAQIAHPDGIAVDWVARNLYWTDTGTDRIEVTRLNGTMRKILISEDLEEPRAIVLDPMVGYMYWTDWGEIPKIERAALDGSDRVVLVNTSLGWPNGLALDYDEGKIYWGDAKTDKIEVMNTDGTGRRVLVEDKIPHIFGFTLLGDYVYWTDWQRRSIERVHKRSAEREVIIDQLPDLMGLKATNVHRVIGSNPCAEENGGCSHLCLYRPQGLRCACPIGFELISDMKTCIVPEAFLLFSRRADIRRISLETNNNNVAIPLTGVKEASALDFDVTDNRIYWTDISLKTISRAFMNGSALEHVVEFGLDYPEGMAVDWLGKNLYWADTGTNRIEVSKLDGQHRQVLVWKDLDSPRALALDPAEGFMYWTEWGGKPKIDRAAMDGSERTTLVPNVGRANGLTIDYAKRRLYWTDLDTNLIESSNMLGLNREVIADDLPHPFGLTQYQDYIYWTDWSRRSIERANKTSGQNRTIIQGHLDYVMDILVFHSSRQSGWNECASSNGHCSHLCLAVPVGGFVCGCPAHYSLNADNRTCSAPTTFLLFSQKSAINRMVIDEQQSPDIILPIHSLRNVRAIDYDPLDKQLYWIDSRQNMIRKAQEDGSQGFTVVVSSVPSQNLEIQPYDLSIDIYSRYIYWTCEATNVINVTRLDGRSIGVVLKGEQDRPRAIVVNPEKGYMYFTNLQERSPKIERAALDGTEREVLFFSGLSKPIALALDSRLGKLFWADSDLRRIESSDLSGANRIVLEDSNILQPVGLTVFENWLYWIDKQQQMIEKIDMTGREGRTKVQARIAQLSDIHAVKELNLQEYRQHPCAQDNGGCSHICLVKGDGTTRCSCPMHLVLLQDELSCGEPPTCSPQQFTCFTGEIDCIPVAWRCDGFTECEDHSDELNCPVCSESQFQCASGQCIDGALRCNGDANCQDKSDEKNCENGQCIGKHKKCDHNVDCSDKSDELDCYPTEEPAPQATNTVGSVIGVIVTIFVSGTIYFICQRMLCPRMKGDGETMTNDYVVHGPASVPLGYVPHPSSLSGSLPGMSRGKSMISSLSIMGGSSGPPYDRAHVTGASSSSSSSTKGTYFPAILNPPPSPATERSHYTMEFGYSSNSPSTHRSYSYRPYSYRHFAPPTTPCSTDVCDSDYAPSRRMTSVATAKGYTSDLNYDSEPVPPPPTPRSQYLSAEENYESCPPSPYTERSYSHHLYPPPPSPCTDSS

Binder	EC50 [1] [nM]	IC50 by STF assay for Wnt1 inhibition (human LRP6) [nM]	EC50 (cynomolgus LRP6) [nM]
scFv08168-D7 (scFv, V domains shown) VH: QVQLVESGGGLVQPGGSLRLSCAASGFTFSDYVMNWVRQAPGKGLEWVSGISWSGVNTHYADSVKGRFTISRDNSKNTLYLQMNSLRAEDTAVYYCARLGATANNIRYKFMDVWGQGTLVTVSS VL: DIELTQPPSVSVAPGQTARITCSGDSLRNKVYWYQQKPGQAPVLVIYKNNRPSGIPERFSGSNSGNTATLTISGTQAEDEADYYCQSYDGQKSLVFGGGTKLTVL	1.15	4.81	–
scFv08168-D9 (scFv, V domains shown) VH: QVQLVESGGGLVQPGGSLRLSCAASGFTFSDYVMNWVRQAPGKGLEWVSGISWSGVNTHYADSVKGRFTISRDNSKNTLYLQMNSLRAEDTAVYYCARLGATANNIRYKFMDVWGQGTLVTVSS VL: DIELTQPPSVSVAPGQTARISCSGDSLRNKVYWYQQKPGQAPVLVIYKNNRPSGIPERFSVSNSGNTATLTISGTQAEDEADYYCQSYDGQKSLVFGGGTKLTVL	1.26	11.1	–
scFv08168-D6 (scFv, V domains shown) VH: QVQLVESGGGLVQPGGSLRLSCAASGFTFSDYVMNWVRQAPGKGLEWISGISWSGVNTHYADSVKGRFTISRDNSKNTLYLQMNSLRAEDTAVYYCARLGATANNIRYKFMDVWGQGTLVTVSS VL: DIELTQPPSVSVAPGQTARISCSGDSLRNKVYWYQQKPGQAPVLVIYKNNRPSGIPERFSGSNSGNTATLTISGTQAEDEADYYCQSYDGQKSLVFGGGTKLTVL	1.24	0.74	–
MOR08168 Fab (Fab, V domains shown, HuCAL Fab expressed in E. coli; also called Propeller 1 anti-LRP6 Fab MOR08168) VH: QVQLVESGGGLVQPGGSLRLSCAASGFTFSDYVINWVRQAPGKGLEWVSGISWSGVNTHYADSVKGRFTISRDNSKNTLYLQMNSLRAEDTAVYYCARLGATANNIRYKFMDVWGQGTLVTVSS VL: DIELTQPPSVSVAPGQTARISCSGDSLRNKVYWYQQKPGQAPVLVIYKNNRPSGIPERFSGSNSGNTATLTISGTQAEDEADYYCQSYDGQKSLVFGGGTKLTVL	–	–	0.88
MOR08545 Fab (Fab, V domains shown, also called Propeller 1 anti-LRP6 Fab MOR08545) VH: QVQLVESGGGLVQPGGSLRLSCAASGFTFSVNGMHWVRQAPGKGLEWVSVIDGMGHTYYADSVKGRFTISRDNSKNTLYLQMNSLRAEDTAVYYCARYDYIKYGAFDPWGQGTLVTVSS VL: DIELTQPPSVSVAPGQTARISCSGDNIGSKYVHWYQQKPGQAPVLVIYGDSNRPSGIPERFSGSNSGNTATLTISGTQAEDEADYYCTRTSTPISGVFGGGTKLTVLG	–	–	0.3
MOR06706 Fab (Fab, V domains shown, also called Propeller 1 anti-LRP6 Fab MOR06706) VH: QVQLVESGGGLVQPGGSLRLSCAASGFTFSDYAIHWVRQAPGKGLEWVSGISYSGSSTHYADSVKGRFTISRDNSKNTLYLQMNSLRAEDTAVYYCARGSHGNIMAKRYFDFWGQGTLVTVSS VL: DIELTQPPSVSVAPGQTARISCSGDNIRKKYVYWYQQKPGQAPVLVIYEDSKRPSGIPERFSGSNSGNTATLTISGTQAEDEADYYCSTADSGINNGVFGGGTKLTVL	–	–	0.46
MOR08193 Fab (Fab, V domains shown, also called Propeller 3 anti-LRP6 Fab MOR08193) VH: QVQLKESGPALVKPTQTLTLTCTFSGFSLSNRGGGVGWIRQPPGKALEWLAWIDWDDDKSYSTSLKTRLTISKDTSKNQVVLTMTNMDPVDTATYYCARMHLPLVFDSWGQGTLVTVSS VL: DIVLTQSPATLSLSPGERATLSCRASQFIGSRYLAWYQQKPGQAPRLLIYGASNRATGVPARFSGSGSGTDFTLTISSLEPEDFAVYYCQQYWSIPITFGQGTKVEIKR	–	–	0.2
MOR08473 Fab (Fab, V domains shown, also called Propeller 3 anti-LRP6 Fab MOR08473) VH: QVQLVESGGGLVQPGGSLRLSCAASGFTFSSYGMSWVRQAPGKGLEWVSNISNDGHYTYYADSVKGRFTISRDNSKNTLYLQMNSLRAEDTAVYYCARFQASYLDIMDYWGQGTLVTVSS VL: DIELTQPPSVSVAPGQSITISCSGDNIGSKYVHWYQQKPGQAPVLVIYNDSNRPSGIPERFSGSNSGNTATLTISGTQAEDEADYYCQAWGDNGTRVFGGGTKLTVLG	–	–	0.52
scFv08168-D2 (scFv) QVQLVESGGGLVQPGGSLRLSCAASGFTFSDYVFNWVRQAPGKGLEWVAGISWSGVNTHYADSVKGRFTISRDNSKNTLYLQMNSLRAEDTAVYYCARLGATANNIRYKFMDVWGQGTLVTVSSGGGGSGGGGSGGGGSDIELTQPPSVSVAPGQTARISCSGDSLRNKVYWYQQKPGQAPVLVIYKNNRPSGIPERFSGSNSGNTATLTISGTQAEDEADYYCQSYDGQKSLVFGGGTKLTVL	1.68	–	–
scFv08168-D4 (scFv) QVQLVESGGGLVQPGGSLRLSCAASGFTFSDYVMNWVRQAPGKGLEWVSSISWSGVNTHYADSVKGRFTISRDNSKNTLYLQMNSLRAEDTAVYYCARLGATANNIRYKFMDVWGQGTLVTVSSGGGGSGGGGSGGGGSDIELTQPPSVSVAPGQTARISCSGDSLRNKVYWYQQKPGQAPVLVIYKNNRPSGIPERFSGSNSGNTATLTISGTQAEDEADYYCQSYDGQKSLVFGGGTKLTVL	1.47	–	–
scFv08168-D5 (scFv) QVQLVESGGGLVQPGGSLRLSCAASGFTFSDYVMNWVRQAPGKGLEWVSGISWSGVNTYYADSVKGRFTISRDNSKNTLYLQMNSLRAEDTAVYYCARLGATANNIRYKFMDVWGQGTLVTVSSGGGGSGGGGSGGGGSDIELTQPPSVSVAPGQTARISCSGDSLRNKVYWYQQKPGQAPVLVIYKNNRPSGIPERFSGSNSGNTATLTISGTQAEDEADYYCQSYDGQKSLVFGGGTKLTVL	1.22	–	–
scFv08168-D8 (scFv, V domains shown) VH: QVQLVESGGGLVQPGGSLRLSCAASGFTFSDYVMNWVRQAPGKGLEWVSGISWSGVNTHYADSVKGRFTISRDNSKNTLYLQMNSLRAEDTAVYYCARLGATANNIRYKFMDVWGQGTLVTVSS VL: DIELTQPPSVSVAPGQTARISCSGDSLRNKVYWYQQKPGQAPVLLIYKNNRPSGIPERFSGSNSGNTATLTISGTQAEDEADYYCQSYDGQKSLVFGGGTKLTVL	0.91	–	–

— patent US20130064823A1 (Novartis, published 2013)
